Assay results from patent publication US20220259289A1 (Janssen / Centocor, published 2022).

Assays:
[1] = target: T1, human serum albumin (human, UniProt P02768 25-609); assay: ELISA, negative control HSA
T1 construct: Negative control of the ELISA; also called HSA
Description: (§1) Streptavidin-coated Maxisorp plates (Nunc catalog 436110) were blocked for 1 h in Starting Block T20 (Pierce) and then coated with biotinylated CD137 (using same antigen as in panning) or negative controls (an unrelated Fc-fused recombinant protein and human serum albumin) for 1 h. Plates were rinsed with TBST and diluted lysate was applied to plates for 1 h. Following additional rinses, wells were treated with HRP-conjugated anti-Centyrin antibody (PAB25) for 1 h and then assayed with POD (Roche catalog 11582950001).

[2] = target: T2, recombinant biotinylated CD137 protein (Fc-fusion protein, R&D Systems 838-4B) (human, UniProt Q07011 24-186, biotinylated, sites not stated); assay: ELISA, lysate on biotinylated CD137-Fc
T2 construct: Bought Fc fusion; also called CD137-Fc
Description: as §1

[3] = target: unrelated Fc-fused recombinant protein; assay: ELISA, negative control Fc protein
[4] = target: unrelated Fc-fused recombinant protein (negative control); assay: ELISA, bacterial lysate on plate-bound antigen, luminescence

T1 sequence (P02768 25-609 limits assumed): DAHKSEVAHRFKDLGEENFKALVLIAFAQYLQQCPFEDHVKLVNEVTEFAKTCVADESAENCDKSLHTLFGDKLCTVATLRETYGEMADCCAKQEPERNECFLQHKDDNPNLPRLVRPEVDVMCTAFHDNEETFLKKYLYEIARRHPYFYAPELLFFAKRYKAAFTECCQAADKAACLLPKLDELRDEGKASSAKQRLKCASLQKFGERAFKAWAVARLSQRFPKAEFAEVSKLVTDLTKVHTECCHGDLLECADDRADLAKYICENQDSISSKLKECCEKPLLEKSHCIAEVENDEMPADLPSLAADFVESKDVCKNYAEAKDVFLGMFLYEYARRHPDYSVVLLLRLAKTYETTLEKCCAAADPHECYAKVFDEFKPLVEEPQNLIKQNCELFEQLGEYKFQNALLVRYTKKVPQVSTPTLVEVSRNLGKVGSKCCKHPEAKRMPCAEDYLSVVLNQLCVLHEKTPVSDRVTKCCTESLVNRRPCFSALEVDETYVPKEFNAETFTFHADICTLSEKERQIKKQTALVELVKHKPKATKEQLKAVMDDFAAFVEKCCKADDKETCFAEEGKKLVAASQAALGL

| Binder | ELISA HSA (RLU) [1] | ELISA CD137 (RLU) [2] | ELISA Fc Control (RLU) [3] | ELISA Fc Control (RLU) [4] |
| --- | --- | --- | --- | --- |
| ISOP193AR9P1G8 (designed binder, not shown: small tags and cut ends) LPAPKNLVVSRVTEDSARLSWHATFGDPFDSFLIQYQESEKVGEAIVLTVPGSERSYDLTGLKPGTEYTVSIYGVGRHYTVYDSNPLSAIFTT | 720 RLU | 4.26e+06 RLU | 1440 RLU | – |
| ISOP193BR9P1G3 (designed binder, not shown: small tags and cut ends) LPAPKNLVVSRVTEDSARLSWAQSNQQFDSFLIQYQESEKVGEAIVLTVPGSERSYDLTGLKPGTEYTVSIYGVVWQNWVAYNSNPLSAIFTT | 640 RLU | 4.71e+06 RLU | 1360 RLU | – |
| ISOP193BR9P1B12 (designed binder, not shown: small tags and cut ends) LPAPKNLVVSRVTEDSARLSWPDESRPVRFDSFLIQYQESEKVGEAIVLTVPGSERSYDLTGLKPGTEYTVSIYGVLRPWIYATNDSNPLSAIFTT | 2880 RLU | 6.55e+06 RLU | 14000 RLU | – |
| ISOP193BR9P1H6 (designed binder, not shown: small tags and cut ends) LPAPKNLVVSRVTEDSARLSWPDESRPVRFDSFLIQYQESEKVGEAIVLTVPGSERSYDLTGLKPGTEYTVSIYGVVGQWKYATADSNPLSAIFTT | 2880 RLU | 8.86e+06 RLU | 8320 RLU | – |
| ISOP193BR9P1H2 (designed binder, not shown: small tags and cut ends) LPAPKNLVVSRVTEDSARLSWPDESRPVRFDSFLIQYQESEKVGEAIVLTVPGSERSYDLTGLKPGTEYTVSIYGVHTRDWTAWNASNPLSAIFTT | 3280 RLU | 3.5e+06 RLU | 11800 RLU | – |
| ISOP193BR9P1H3 (designed binder, not shown: small tags and cut ends) LPAPKNLVVSRVTEDSARLSWNRLDSEWVAFDSFLIQYQESEKVGEAIVLTVPGSERSYDLTGLKPGTEYTVSIYGVVFRPWLAYNSNPLSAIFTT | 1360 RLU | 5.26e+06 RLU | 2080 RLU | – |
| ISOP193AR9P1A11 (designed binder, not shown: small tags and cut ends) LPAPKNLVVSRVTEDSARLSWALSSVHAYFDSFLIQYQESEKVGEAIVLTVPGSERSYDLTGLKPGTEYTVSIYGVQYVDGFFKSNPLSAIFTT | 320 RLU | 8.66e+06 RLU | 1440 RLU | – |
| ISOP193AR9P1G5 (designed binder, not shown: small tags and cut ends) LPAPKNLVVSRVTEDSARLSWRISDRLPLFDSFLIQYQESEKVGEAIVLTVPGSERSYDLTGLKPGTEYTVSIYGVGRHYTVYDSNPLSAIFTT | 720 RLU | 4.02e+06 RLU | 1120 RLU | – |
| ISOP120FR5P1D7 (designed binder, not shown: small tags and cut ends) LPAPKNLVVSRVTEDSARLSWTAPDAAFDSFIIRYLEDISYGEAIVLTVPGSERSYDLTGLKPGTEYHVGIEGVKGGNVSWPLSAIFTT | – | – | – | 400 RLU |
| ISOP120FR5P1F8 (designed binder, not shown: small tags and cut ends) LPAPKNLVVSRVTEDSARLSWTAPDAAFDSFIIRYLEDISYGEAIVLTVPGSERSYDLTGLKPGTEYHVGIEGVKGGNVSWPLSAIFTT | – | – | – | 240 RLU |
| ISOP193BR9P1E6 (designed binder, not shown: small tags and cut ends) LPAPKNLVVSRVTEDSARLSWGAITALFDSFLIQYQESEKVGEAIVLTVPGSERSYDLTGLKPGTEYTVSIYGVKFPYYYATADSNPLSAIFTT | 560 RLU | 4.63e+06 RLU | 2560 RLU | – |
| ISOP193AR9P1A6 (designed binder, not shown: small tags and cut ends) LPAPKNLVVSRVTEDSARLSWKFGEVAFDSFLIQYQESEKVGEAIVLTVPGSERSYDLTGLKPGTEYTVSIYGVGRHYTVYDSNPLSAIFTT | 480 RLU | 6.74e+06 RLU | 960 RLU | – |
| ISOP193AR9P1C10 (designed binder, not shown: small tags and cut ends) LPAPKNLVVSRVTEDSARLSWPNHISIFDSFLIQYQESEKVGEAIVLTVPGSERSYDLTGLKPGTEYTVSIYGVGRFYTVFDSNPLSAIFTT | 960 RLU | 7.14e+06 RLU | 3520 RLU | – |
| ISOP193AR9P1E6 (designed binder, not shown: small tags and cut ends) LPAPKNLVVSRVTEDSARLSWKFHSPTFDSFLIQYQESEKVGEAIVLTVPGSERSYDLTGLKPGTEYTVSIYGVGRHYTVYDSNPLSAIVTT | 720 RLU | 4.18e+06 RLU | 1200 RLU | – |
| ISOP193BR9P1G11 (designed binder, not shown: small tags and cut ends) LPAPKNLVVSRVTEDSARLSWAGHYRKIRNFDSFLIQYQESEKVGEAIVLTVPGSERSYDLTGLKPGTEYTVSIYGVKFPYYYATADSNPLSAIFTT | 9600 RLU | 4.99e+06 RLU | 56900 RLU | – |
| ISOP193BR9P1G2 (designed binder, not shown: small tags and cut ends) LPAPKNLVVSRVTEDSARLSWAGHYRKIRNFDSFLIQYQESEKVGEAIVLTVPGSERSYDLTGLKPGTEYTVSIYGVAEHWYYATQDSNPLSAIFTT | 2160 RLU | 6.15e+06 RLU | 15900 RLU | – |
| ISOP193BR9P1G6 (designed binder, not shown: small tags and cut ends) LPAPKNLVVSRVTEDSARLSWDDQFEDWFDSFLIQYQESEQVGEAIVLTVPGSERSYDLTGLKPGTEYTVSIYGVHTRDWTAWNASNPLSAIFTT | 960 RLU | 8.09e+06 RLU | 2640 RLU | – |
| ISOP193BR9P1G9 (designed binder, not shown: small tags and cut ends) LPAPKNLVVSRVTEDSARLSWKQVTVAPEFDSFLIQYQESEKVGEAIVLTVPGSERSYDLTGLKPGTEYTVSIYGVKFPYYYATADSNPLSAIFTT | 720 RLU | 3.73e+06 RLU | 1200 RLU | – |
| ISOP193AR9P1F4 (designed binder, not shown: small tags and cut ends) LPAPKNLVVSRVTEDSARLSWLEQEQFVNHFDSFLIQYQESEKVGEAIVLTVPGSERSYDLTGLKPGTEYTVSIYGVQYVDGFFKSNPLSAIFTT | 720 RLU | 3.84e+06 RLU | 1520 RLU | – |
| ISOP193AR9P1B12 (designed binder, not shown: small tags and cut ends) LPAPKNLVVSRVTEDSARLSWTNEQITKYGFDSFLIQYQESEKVGEAIVLTVPGSERSYDLTGLKPGTEYTVSIYGVGAPYTVYDSNPLSAIFTT | 1440 RLU | 2.76e+06 RLU | 2240 RLU | – |
| ISOP193AR9P1H8 (designed binder, not shown: small tags and cut ends) LPAPKNLVVSRVTEDSARLSWTNEQITKYGFDSFLIQYQESEKVGEAIVLTVPGSERSYDLTGLKPGTEYTVSIYGVGRFYTVFDSNPLSAIFTT | 1040 RLU | 3.72e+06 RLU | 3040 RLU | – |
| ISOP193ER9P1A10 (designed binder, not shown: small tags and cut ends) LPAPKNLVVSRVTEDSARLSWTAPDAAFDSFDIYYFEHPVGGEAIVLTVPGSERSYDLTGLKPGTEYLVTIYGVKGGHFSGPLSAIFTT | 240 RLU | 1.49e+07 RLU | 1120 RLU | – |
| ISOP193ER9P1G5 (designed binder, not shown: small tags and cut ends) LPAPKNLVVSRVTEDSARLSWTAPDAAFDSFDIYYFEHPVGGEAIVLTVPGSERSYDLTGLKPGTEYLVTIYGVKGGYLSMPLSAIFTT | – | – | 1440 RLU | – |
| ISOP193ER9P1F9 (designed binder, not shown: small tags and cut ends) LPAPKNLVVSRVTEDSARLSWTAPDAAFDSFHIYYGEHYNLGEAIVLTVPGSERSYDLTGLKPGTEYLVTIYGVKGGFWSTPLSAIFTT | 400 RLU | 1.5e+07 RLU | 1840 RLU | – |
| ISOP193ER9P1B4 (designed binder, not shown: small tags and cut ends) LPAPKNLVVSHVTEDSARLSWTAPDAAFDSFDIYYFEHPVGGEAIVLTVPGSERSYDLTGLKPGTEYLVTIYGVKGGYLSMPLSAIFTT | 320 RLU | 1.61e+07 RLU | 1600 RLU | – |
| ISOP193FR9P1A11 (designed binder, not shown: small tags and cut ends) LPAPKNLVVSRVTEDSARLSWTAPDAAFDSFAIQYWEGWEWGEAIVLTVPGSERSYDLTGLKPGTEYLVTIYGVKGGHWSRPLSAIFTT | 880 RLU | 5.78e+06 RLU | 3520 RLU | – |
| ISOP193ER9P1G4 (designed binder, not shown: small tags and cut ends) LPAPKNLVVSRVTEDSARLSWTAPDAAFDSFDIYYFEHPVGGEAIVLTVPGSERSYDLTGLKPGTEYLVTIYGVKGGNFSFPLSAIFTT | 320 RLU | 1.38e+07 RLU | 1440 RLU | – |
| ISOP193FR9P1G2 (designed binder, not shown: small tags and cut ends) LPAPKNLVVSRVTEDSARLSWTAPDAAFDSFTIYYFENENGGEAIVLTVPGSERSYDLTGLKPDTEYLVTIYGVKGGHWSRPLSAIFTT | 880 RLU | 7.86e+06 RLU | 2560 RLU | – |
| ISOP193ER9P1D7 (designed binder, not shown: small tags and cut ends) LPAPKNLVVSRVTEDSARLSWTAPDAAFDSFDIYYGEHWKLGEAIVLTVPGSERSYDLTGLKPGTEYLVTIYGVKGGMSSNPLSAIFTT | 400 RLU | 1.1e+07 RLU | 1680 RLU | – |
| ISOP193FR9P1G10 (designed binder, not shown: small tags and cut ends) LPAPKNLVVSRVTEDSARLSWTAPDAAFDSFTIYYFENENGGEAIVLTVPGSERSYDLTGLKPGTEYLVTIYGVKGGHWSRPLSAIFTT | 880 RLU | 8.91e+06 RLU | 2480 RLU | – |
